Results on one molecule are retold here after patent US10052364B2, “Osteocalcin as a treatment for cognitive disorders” (THE TRUSTEES OF COLUMBIA UNIVERSITY IN THE CITY OF NEW YORK, priority 2013, dated 2018).

Format in all cases: in vivo, mouse
One data set concerns Osteocalcin-/- mice. The data set can be described thus: Intracerebro-ventricular (ICV) infusion in Osteocalcin-/- mice, behavioral tests. On the procedure: FIG. 4. Administration of osteocalcin prevents anxiety and depression. (A-E) Behavioral analyses of adult Osteocalcin^−/− mice receiving osteocalcin through intracerebro-ventricular (ICV) infusions. (A) Light and Dark test, (B) Elevated plus maze test, (C) Open field test, (D) Forced swim test, and (E) Tail suspension test performed in a cohort of WT (n=7) and Osteocalcin^−/− infused with vehicle or osteocalcin (10 ng/hour). In each set of three bars, the rightmost bar represents the results following administration of osteocalcin.
Osteocalcin^−/−, Gprc6a^−/−, Osteocalcin-mCherry, and Osteocalcin floxed mice have been previously described (Ducy et al., 1996, Nature 382:448-452; Oury et al., 2011, Cell 144:796-809). Mouse genotypes were determined by PCR. For all experiments, controls were littermate female WT, Cre-expressing, or flox/flox. All mice were maintained on a pure 129-Sv genetic background except for the inducible deletion Osteocalcin model (mix background: 25% C57/BL6 and 75% 129sv). […] Leptin and osteocalcin content in sera and tissues were determined by ELISA.
Tail suspension testing was performed as previously described (Mayorga et al., 2001, J. Pharmacology Exper. Therapeutics 298:1101-1107; Stem et al., 1985, Psychopharmacology 85:367-370). […] The parameter recorded was the number of seconds spent immobile. Mice were scored by a highly trained observer, over a 5 min period, blind to the genotype of the mice.
Anxiety and locomotor activity of mice were measured using the open field test (David et al., 2009, Neuron 62:479-493). […] Mice were monitored throughout each test session by video tracking and analyzed using Matlab software. […] The overall motor activity was quantified as the total distance travelled. The anxiety was quantified measuring the number of rearings and the time and distance spent in the center versus periphery of the open field chamber (in %).
Each mouse was allowed to explore the apparatus for 5 min. Global activity was assessed by measuring the number of entries […] (David et al, 2009, Neuron 62:479-493). […]

A short description of data set [1]: Acute stereotactic injection into the hippocampus, pCREB and PKA immunofluorescence. The conditions noted are these: 10 ng into hippocampus, 16 h post injection. On the procedure: (§1) FIG. 10. Osteocalcin administration results in CREB phosphorylation. (A) p-CREB immunofluorescence (IF) in the dentate gyms (DG) of WT and Ocn−/− hippocampal region. (B) p-CREB IF in WT brain sections following a dual stereotactic injection of vehicle (PBS) (on the left) or Ocn (10 ng) (on the right) in the hippocampus. The arrows point toward the DG. (C) PKA IF in WT brain sections following a dual stereotactic injection of vehicle (PBS) (on the right) or Ocn (10 ng) (on the left) in the hippocampus.
(§2) The resulting effects on animal behavior of direct recombinant uncarboxylated osteocalcin delivery raise the question of the molecular mechanism of action of osteocalcin in the brain. Given that osteocalcin acts through a G-protein coupled receptor pathway in other tissues, e.g., pancreas and testis, the phosphorylated CREB levels in the hippocampi of Ocn−/− and WT animals was checked. […] The hippocampus is essential for optimal spatial learning and memory in rodents. It was then asked whether the acute stereotactic injection of 10 ng of recombinant uncarboxylated osteocalcin directly into the hippocampus of WT animals would affect pCREB levels. At 16 h post injection, pCREB staining was increased in the hemisphere injected with osteocalcin versus the one injected with PBS in the same animal (FIG. 10B).

The test system of data set [2] is CREB phosphorylation in the hippocampus. The data set is described as above. The note with it: 10 ng into hippocampus of WT animals, 16 h post injection. On the procedure: as §1, §2

B1: uncarboxylated osteocalcin: Recombinant osteocalcin bacterially produced, cleaved from the GST subunit; completely undercarboxylated at all three sites (protein, listed as Homo sapiens)
chain: MRALTLLALLALAALCIAGQAGAKPSGAESSKGAAFVSKQEGSEVVKRPRRYLYQWLGAPVPYPDPLEPRREVCELNPDCDELADHIGFQEAYRRFYGPV
modifications: uncarboxylated
notes: Recombinant osteocalcin bacterially produced, cleaved from the GST subunit; completely undercarboxylated at all three sites
Turning to B1, the “leakage of centrally delivered hormone into the general circulation (osteocalcin in blood)” value in the data set on Osteocalcin-/- mice (ICV 10 ng/hour, infused Osteocalcin-/- mice) is reported as “no leakage”. The “anxiety and depression features (DLT, EPMT, OFT, FST, TST)” value in the data set on Osteocalcin-/- mice (ICV 10 ng/hour, week-long treatment, Osteocalcin-/- mice) is “corrected the anxiety and depression features”. Also, in the data set on Osteocalcin-/- mice (direct administration to the brains of adult Osteocalcin-/- mice), the “defects in anxiety, depression, learning, and memory” value is “rescued defects in anxiety, depression, learning, and memory”. The “PKA staining in the injected hemisphere” value in data set [1] is “widespread and dramatic increase”. Also, the “pCREB staining in injected hemisphere versus PBS hemisphere” value in data set [2] is “increased”.
